The record followed here is patent publication US20250353908A1 (ARCELLX, published 2025).

Changes are numbered by the printed parent chain.

First the molecules themselves.
T1: CS1-Fc (human, UniProt Q9NQ25 23-226)
T1 construct: also called recombinant human CS1-Fc; CS1-Fc polypeptide; not shown: Fc portion of CS1-Fc
T1 sequence: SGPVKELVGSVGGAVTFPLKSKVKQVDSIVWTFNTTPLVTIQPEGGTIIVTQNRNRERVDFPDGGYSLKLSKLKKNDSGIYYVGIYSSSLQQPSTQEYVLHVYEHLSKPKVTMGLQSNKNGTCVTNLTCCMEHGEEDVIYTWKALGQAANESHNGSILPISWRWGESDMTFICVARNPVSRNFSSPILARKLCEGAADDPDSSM

B1: CS1DD006-P26(Q26) Adapter (designed binder)
chain: MGSWAEFFTRLDAIWERLEGLGGSEAELAAFEKEIAAFESELQAYKGKGYPEVETLKFHAAGIRQKLQAYRHNGGGGDGGGGSGGGGSGQESQALAKRSCGLFQKLGEYYLQNAFLVAYTKKAPQLTSSELMAITRKMAATAATCCQLSEDKLLACGEGAADIIIGHLCIRHEMTPVNPGVGQCCTSSYANRRPCFSSLVVDETYVPPAFSDDKFIFHKDLCQAQGVALQTMKQEFLINLVKQKPQITEEQLEAVIADFSGLLEKCCQGQEQEVCFAEEGQKLISKTRAALGV
notes: Monovalent Adapter: CS1DD006 D domain, GS linker, AFP p26 (Q26); The SPR sentence names only the format DD-GS linker-Q26; also called monovalent CS1DD006-P26(Q26); CS1DD006 adapter protein of the format DD-GS linker-Q26
B2: CS1DD021 adapter protein of the format DD-GS linker-Q26 (designed binder)
chain: MGSWDEFNQRLGAFEERLQALGGSEAELAALEKEIAAFESELQAYKGKGNPEVEFLRWYADGIRWELQAYRHN
B3: CS1DD007 adapter protein of the format DD-GS linker-Q26 (designed binder)
chain: MGSWAEFFTRLDAIWERLEGLGGSEAELAALEKEIAAFESELQAYKGKGYPEVETLKFHAAGIRQKLQAYRHN
B4: CS1DD018 adapter protein of the format DD-GS linker-Q26 (designed binder)
chain: MGSWDEFNQRLGAFEERLQALGGSEAELAAFEKEIAAFESELQAYKGKGNPEVEFLRWYADGIRWELQAYRHNGGGGDGGGGSGGGGSGQESQALAKRSCGLFQKLGEYYLQNAFLVAYTKKAPQLTSSELMAITRKMAATAATCCQLSEDKLLACGEGAADIIIGHLCIRHEMTPVNPGVGQCCTSSYANRRPCFSSLVVDETYVPPAFSDDKFIFHKDLCQAQGVALQTMKQEFLINLVKQKPQITEEQLEAVIADFSGLLEKCCQGQEQEVCFAEEGQKLISKTRAALGV
B5: CS1DD020-P26(Q26) Adapter (designed binder)
chain: B4 chain with F14I, F31L
notes: Monovalent Adapter: CS1DD020 D domain, GS linker, AFP p26 (Q26); The SPR sentence names only the format DD-GS linker-Q26; also called monovalent CS1DD020-P26(Q26); C1DD020 adapter protein of the format DD-GS linker-Q26
B6: CS1DD008 (designed binder)
chain: B2 chain with F14I, L31F, D61A
B7: SEQ ID NO 84 (designed binder)
chain: MGSWIEFGWRLQAIEERLRALGGSEAELAAFEKEIAAFESELQAYKGKGNPEVEVLREWAAEIRWQLQAYRHN
B8: SEQ ID NO 72 (designed binder)
chain: MGSWYEFWHRLTAIEQRLWALGGSEAELAAFEKEIAAFESELQAYKGKGNPEVEDLRSYAAEIRWRLQAYRHN
B9: SEQ ID NO 68 (designed binder)
chain: B8 chain with H9T, E15Q, Q16M, W19D, S58A, Y59F, E62Q, W65T, R66H
B10: SEQ ID NO 75 (designed binder)
chain: MGSWHEFWTRLTAIQMRLDALGGSEAELAAFEKEIAAFESELQAYKGKGNPEVEDLRAFAAQIRTHLQAYRHN
B11: SEQ ID NO 80 (designed binder)
chain: MGSWTEFWYRLSAIDLRLEALGGSEAELAAFEKEIAAFESELQAYKGKGNPEVEELRDYAAYIRAELQAYRHN
B12: SEQ ID NO 77 (designed binder)
chain: B8 chain with Y5S, H9F, T12L, W19E, S58D, E62L, W65E, R66M
B13: SEQ ID NO 70 (designed binder)
chain: B8 chain with Y5M, E15D, Q16S, W19E, S58Q, E62S, W65K, R66S
B14: SEQ ID NO 83 (designed binder)
chain: B11 chain with Y9A, S12T, E19I, Y62F, E66N
B15: SEQ ID NO 71 (designed binder)
chain: B11 chain with T5S, Y9H, L16A, E55D, D58A, Y62M, A65N, E66V
B16: SEQ ID NO 74 (designed binder)
chain: B11 chain with T5S, Y9M, S12T, L16M, E19A, Y62V, A65E, E66S
B17: SEQ ID NO 82 (designed binder)
chain: B11 chain with T5S, Y9N, S12I, L16Y, E19L, Y62H, A65W, E66N
B18: SEQ ID NO 69 (designed binder)
chain: B11 chain with T5Y, Y9S, D15H, L16V, E55D, D58A, Y62F, A65S
B19: SEQ ID NO 66 (designed binder)
chain: B11 chain with T5A, Y9S, L16E, E19G, D58E, Y62E, A65R, E66V
B20: SEQ ID NO 78 (designed binder)
chain: B10 chain with H5A, T9F, T12A, D19Y, A58D, F59Y, Q62H, T65Q, H66E
B21: SEQ ID NO 79 (designed binder)
chain: B10 chain with H5S, T12A, Q15D, D19N, A58D, F59Y, T65E, H66E
B22: SEQ ID NO 81 (designed binder)
chain: B11 chain with T5S, Y9I, S12A, D15E, E19S, Y62I, A65R
B23: SEQ ID NO 73 (designed binder)
chain: B11 chain with T5S, Y9H, L16H, E19G, D58A, Y62E, A65R, E66N
B24: SEQ ID NO 65 (designed binder)
chain: MGSWVEFEWRLYAIAGRLEALGGSEAELAAFEKEIAAFESELQAYKGKGNPEVEYLRQGAARIRATLQAYRHN
B25: SEQ ID NO 87 (designed binder)
chain: MGSWTEFHNRLWAIYDRLDALGGSEAELAAFEKEIAAFESELQAYKGKGNPEVETLRHHAAGIRRSLQAYRHN
B26: SEQ ID NO 89 (designed binder)
chain: MGSWSEFNSRLDAIFDRLFALGGSEAELAAFEKEIAAFESELQAYKGKGNPEVEELRSHAANIRASLQAYRHN
B27: SEQ ID NO 90 (designed binder)
chain: B26 chain with N8W, S9I, F15R, D16E, F19W, S58Y, H59F, A65Q, S66Q
B28: CS1DD023 (designed binder)
chain: MGSWVEFYDRLEAIWQRLEALGGSEAELAAFEKEIAAFESELQAYKGKGNPEVEKLRRHAAGIRMRLQAYRHN
B29: SEQ ID NO 86 (designed binder)
chain: B25 chain with T5I, H8Q, N9T, W12E, D16Q, H58W, R65Q, S66Y
B30: SEQ ID NO 88 (designed binder)
chain: B28 chain with V5E, D9V, E12D, Q16E, K55G, R58W, M65E
B31: SEQ ID NO 76 (designed binder)
chain: B28 chain with V5E, Y8Q, D9N, E12G, Q16D, K55S, R58W, M65T
B32: SEQ ID NO 62 (designed binder)
chain: MGSWHFFKARLAYIKQGLEALGGSEAELALFEEFIAEFESDLQQYKGKGNPEVEALRKEAAAIRDELQAYRHN
B33: SEQ ID NO 85 (designed binder)
chain: MGSWNEFNERLGAINHRLRALGGSEAELAAFEKEIAAFESELQAYKGKGNPEVEVLREGAAWIRAELQAYRHN

For one assay, the target named is T1, CS1-Fc. Nature of the assay: SPR (Biacore), adapter protein DD-GS linker-Q26, CS1-Fc target. An excerpt:
One or more of the above discussed methods were used to identify the SEQ ID NO: 41-47, 49-61, 91-93 and 96-106 variant CS1 specific D domains. […] In addition to binding human CS1, the CS1DD03, CSDD006 and CS1DD007 D domains are cross-reactive with cyno/rhesus CS1.
With B1, binding was put at a Kd of 38 nM. This lies in the double-digit nanomolar range.

The molecule B2 showed a Kd of 16 nM.

In the case of B3, the affinity, expressed as Kd, was 23 nM.

B4 showed a Kd of 40 nM.

Molecule B5 had a Kd of 18 nM.

The next assay has as its target T1, CS1-Fc. Briefly: phage ELISA, CS1-Fc captured on anti-human IgG1-Fc, anti-M13-HRP, A450 target / A450 IgG1-Fc. As for the experimental part:
To identify new CS1-specific D domains, a D domain phage library described in Intl. Appl. Pub. No. WO 2016164305 and U.S. Pat. No. 10,662,248 was screened with a CS1-Fc polypeptide following standard protocols. Individual colonies containing phagemid from the CS1 panning output were picked and phage were rescued. To assay target binding by ELISA, 96-well plates were coated with anti-human IgG1-Fc antibody followed by incubation with CS1-Fc or IgG1-Fc. Rescued phage diluted in ELISA blocking buffer was then added to each well. Binding was detected using an HRP-conjugated anti-M13 antibody and the ELISA ratio for each DD sequence was determined as the absorbance at 450 nm for target (i.e., CS1-Fc) divided by that for IgG1-Fc averaged across all screened wells containing that clone.
With B6, the “ELISA score (ratio of phage binding to CS1-Fc vs IgG-Fc)” value was determined as 19.2 ratio.

Regarding B7, the “ELISA score (ratio of phage binding to CS1-Fc vs IgG-Fc)” value amounted to 16.3 ratio.

As for B8, the “ELISA score (ratio of phage binding to CS1-Fc vs IgG-Fc)” value stood at 8.75 ratio.

Take B9: the “ELISA score (ratio of phage binding to CS1-Fc vs IgG-Fc)” value was 13.1 ratio.

Regarding B10, the “ELISA score (ratio of phage binding to CS1-Fc vs IgG-Fc)” value was 16 ratio.

For the molecule B11, the “ELISA score (ratio of phage binding to CS1-Fc vs IgG-Fc)” value is 17.8 ratio.

Consider B12, for which the “ELISA score (ratio of phage binding to CS1-Fc vs IgG-Fc)” value worked out at 17.8 ratio.

On to B13, for which the “ELISA score (ratio of phage binding to CS1-Fc vs IgG-Fc)” value is 10.5 ratio.

In the case of B14, the “ELISA score (ratio of phage binding to CS1-Fc vs IgG-Fc)” value is 13.4 ratio.

On to B15, for which the “ELISA score (ratio of phage binding to CS1-Fc vs IgG-Fc)” value stood at 14 ratio.

As to B16, the “ELISA score (ratio of phage binding to CS1-Fc vs IgG-Fc)” value worked out at 18.3 ratio.

In the case of B17, the “ELISA score (ratio of phage binding to CS1-Fc vs IgG-Fc)” value is 16.3 ratio.

Take B18: the “ELISA score (ratio of phage binding to CS1-Fc vs IgG-Fc)” value stood at 16.9 ratio.

Consider B19, for which the “ELISA score (ratio of phage binding to CS1-Fc vs IgG-Fc)” value worked out at 18 ratio.

B20: the “ELISA score (ratio of phage binding to CS1-Fc vs IgG-Fc)” value amounted to 17.7 ratio.

B21: the “ELISA score (ratio of phage binding to CS1-Fc vs IgG-Fc)” value is 18.7 ratio.

For B22, the “ELISA score (ratio of phage binding to CS1-Fc vs IgG-Fc)” value came out at 13.8 ratio.

For B23, the “ELISA score (ratio of phage binding to CS1-Fc vs IgG-Fc)” value was found to be 18.7 ratio.

As for B24, the “ELISA score (ratio of phage binding to CS1-Fc vs IgG-Fc)” value was determined as 15.7 ratio.

For the molecule B25, the “ELISA score (ratio of phage binding to CS1-Fc vs IgG-Fc)” value is 14.7 ratio.

Take B26: the “ELISA score (ratio of phage binding to CS1-Fc vs IgG-Fc)” value came out at 19.6 ratio.

Take B27: the “ELISA score (ratio of phage binding to CS1-Fc vs IgG-Fc)” value is 16.3 ratio.

For the molecule B28, the “ELISA score (ratio of phage binding to CS1-Fc vs IgG-Fc)” value came out at 18.8 ratio.

For the molecule B29, the “ELISA score (ratio of phage binding to CS1-Fc vs IgG-Fc)” value came to 6.03 ratio.

For the molecule B30, the “ELISA score (ratio of phage binding to CS1-Fc vs IgG-Fc)” value turned out to be 13.5 ratio.

For B31, the “ELISA score (ratio of phage binding to CS1-Fc vs IgG-Fc)” value was found to be 16.6 ratio.

For B32, the “ELISA score (ratio of phage binding to CS1-Fc vs IgG-Fc)” value was 13.5 ratio.

With B33, the “ELISA score (ratio of phage binding to CS1-Fc vs IgG-Fc)” value stood at 18.6 ratio.
